Measurements as given in paper doi:10.1101/2020.12.01.406983 (bioRxiv, 2020).

Molecular target: canine parvovirus (CPV) capsid (Canine parvovirus type 2, strain CPV-d …, UniProt P17455)
Experiment: cryo-EM structure

Chain of canine parvovirus (CPV) capsid (P17455 whole entry, looked up): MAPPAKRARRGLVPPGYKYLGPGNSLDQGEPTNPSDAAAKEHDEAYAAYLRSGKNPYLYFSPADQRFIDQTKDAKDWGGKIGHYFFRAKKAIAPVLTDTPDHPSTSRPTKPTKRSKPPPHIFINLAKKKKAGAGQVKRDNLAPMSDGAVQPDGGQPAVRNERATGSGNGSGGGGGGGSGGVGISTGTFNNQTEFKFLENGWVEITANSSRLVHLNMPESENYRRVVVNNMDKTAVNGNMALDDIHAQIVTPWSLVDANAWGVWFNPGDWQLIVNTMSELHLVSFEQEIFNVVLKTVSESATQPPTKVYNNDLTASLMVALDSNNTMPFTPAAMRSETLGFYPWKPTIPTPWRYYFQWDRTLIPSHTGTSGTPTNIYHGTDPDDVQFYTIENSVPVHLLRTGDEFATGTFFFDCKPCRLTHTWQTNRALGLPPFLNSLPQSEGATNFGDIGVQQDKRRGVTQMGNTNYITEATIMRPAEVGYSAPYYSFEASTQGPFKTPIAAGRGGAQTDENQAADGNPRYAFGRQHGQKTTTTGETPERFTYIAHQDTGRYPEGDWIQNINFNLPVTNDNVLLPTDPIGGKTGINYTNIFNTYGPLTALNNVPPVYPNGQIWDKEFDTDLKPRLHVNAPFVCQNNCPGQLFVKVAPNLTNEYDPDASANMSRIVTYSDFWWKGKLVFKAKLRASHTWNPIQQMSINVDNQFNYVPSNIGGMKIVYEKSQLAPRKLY

B1: Fab of MAb14 (Fab 14) (Fab, V domains shown)
VH: AVHLQGTELVKPGASAGVKLSCKASGYTFTNYDMNWVRQRPEQGLEWIGWIFPGDGSTRYNEKFKGKATLTTDKSSSTAYQLNRLTSEDSAVYFCARRGSHGSYSFAYWGQGTLVTVSG
VL: DIVMTQSHKFMSTSVGDRVSITCKASQDVNTALAWYQQIPGQSPKLLIYSASNRYTGVPDRFTASGSGTDFTFTISSVQAEDLALYYCQQHYTTPWTFGGGTKLEIK
stoichiometry N: ~60 Fab 14 molecules per capsid
